{"source": "paper PMC2899456", "about": "(International Journal of Biological Sciences, 2010)", "binders": {"B1": {"name": "pRB (natural protein, mouse (endogenous in ψ-CRE), UniProt P13405 1-921, looked up)", "chain": "MPPKAPRRAAAAEPPPPPPPPPREDDPAQDSGPEELPLARLEFEEIEEPEFIALCQKLKVPDHVRERAWLTWEKVSSVDGILEGYIQKKKELWGICIFIAAVDLDEMPFTFTELQKSIETSVYKFFDLLKEIDTSTKVDNAMSRLLKKYNVLCALYSKLERTCELIYLTQPSSALSTEINSMLVLKISWITFLLAKGEVLQMEDDLVISFQLMLCVVDYFIKFSPPALLREPYKTAAIPINGSPRTPRRGQNRSARIAKQLENDTRIIEVLCKEHECNIDEVKNVYFKNFIPFINSLGIVSSNGLPEVESLSKRYEEVYLKNKDLDARLFLDHDKTLQTDPIDSFETERTPRKNNPDEEANVVTPHTPVRTVMNTIQQLMVILNSASDQPSENLISYFNNCTVNPKENILKRVKDVGHIFKEKFANAVGQGCVDIGVQRYKLGVRLYYRVMESMLKSEEERLSIQNFSKLLNDNIFHMSLLACALEVVMATYSRSTLQHLDSGTDLSFPWILNVLNLKAFDFYKVIESFIKVEANLTREMIKHLERCEHRIMESLAWLSDSPLFDLIKQSKDGEGPDNLEPACPLSLPLQGNHTAADMYLSPLRSPKKRTSTTRVNSAANTETQAASAFHTQKPLKSTSLALFYKKVYRLAYLRLNTLCARLLSDHPELEHIIWTLFQHTLQNEYELMRDRHLDQIMMCSMYGICKVKNIDLKFKIIVTAYKDLPHAAQETFKRVLIREEEFDSIIVFYNSVFMQRLKTNILQYASTRPPTLSPIPHIPRSPYKFSSSPLRIPGGNIYISPLKSPYKISEGLPTPTKMTPRSRILVSIGESFGTSEKFQKINQMVCNSDRVLKRSAEGGNPPKPLKKLRFDIEGADEADGSKHLPAESKFQQKLAEMTSTRTRMQKQRMNESKDVSNKEEK"}}, "test_in_all_cases": "co-IP", "key": {"E2F-1/S332-7A": {"molecular_target": "E2F-1/S332-7A (UniProt Q01094 1-437, S332-7A | S332-7A)"}, "E2F-1/S375A": {"molecular_target": "E2F-1/S375A (UniProt Q01094 1-437, S375A)"}, "E2F-1/S403A": {"molecular_target": "E2F-1/S403A (UniProt Q01094 1-437, S403A)"}, "E2F-1/Y411A": {"molecular_target": "E2F-1/Y411A (UniProt Q01094 1-437, Y411A)"}}}
{"binder": "B1", "values": [{"measurement": "fold change of the pRB/E2F-1 co-IP ratio against E2F-1/wt", "setting": "E2F-1/S332-7A", "value": "~3 fold (increase)"}, {"measurement": "fold change of the pRB/E2F-1 co-IP ratio against E2F-1/wt", "setting": "E2F-1/S375A", "value": "~2.5 fold (increase)"}, {"measurement": "fold change of the pRB/E2F-1 co-IP ratio against E2F-1/wt", "setting": "E2F-1/S403A", "value": "~3 fold (increase)"}, {"measurement": "fold change of the pRB/E2F-1 co-IP ratio against E2F-1/wt", "setting": "E2F-1/Y411A", "value": "~4 fold (decrease)"}]}
